The target in this assay is four tandem FKBP12 domains expressed from pBP0722 pSH1-Fpk-Fpk'.LS.Fpk''.Fpk'''.LS.HA. As to the kind of experiment: cell-based or functional assay.

B1: FRBL-ΔCaspase-9 expressed from pBP0463 pSH1-FRBL.dCaspase9.T2A (other)
chain: EMWHEGLEEASRLYFGERNVKGMFEVLEPLHAMMERGPQTLKETSFNQAYGRDLMEAQEWCRKYMKSGNVKDLLQAWDLYYHVFRRISKSGGGSGVDDGFGDVGALESLRGNADLAYILSMEPCGHCLIINNVNFCRESGLRTRTGSNIDCEKLRRRFSSLHFMVEVKGDLTAKKMVLALLELARQDHGALDCCVVVILSHGCQASHLQFPGAVYGTDGCPVSVEKIVNIFNGTSCPSLGGKPKLFFIQACGGEQKDHGFEVASTSPEDESPGSNPEPDATPFQEGLRTFDQLDAISSLPTPSDIFVSYSTFPGFVSWRDPKSGSWYVETLDDIFEQWAHSEDLQSLLLRVANAVSVKGIYKQMPGCFNFLRKKLFFKTSASRAEGRGSLLTCGDVEENPGP
As for B1, the “IC50 of rapamycin or C7-isopropoxy-rapamycin (the small-molecule heterodimerizer, not of a protein) for loss of SRα-SEAP reporter activity in transfected 293 cells” value was about 3 nM.

Values taken from patent US20240368574A1 (BELLICUM PHARMACEUTICALS, published 2024).
